T1: CDT1 (Homo sapiens, UniProt Q9H211)
T1 construct: tCDT1 (residues 158–356); also miniCDT1 (residues 158–396); with Geminin
T1 sequence (Q9H211 158-356): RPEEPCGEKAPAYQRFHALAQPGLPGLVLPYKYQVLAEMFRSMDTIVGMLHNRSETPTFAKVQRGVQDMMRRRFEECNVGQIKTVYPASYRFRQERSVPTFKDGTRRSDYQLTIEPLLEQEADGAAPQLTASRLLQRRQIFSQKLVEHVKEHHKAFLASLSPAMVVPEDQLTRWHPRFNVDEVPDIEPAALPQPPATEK
T1 sequence (O75496 1-209 partner): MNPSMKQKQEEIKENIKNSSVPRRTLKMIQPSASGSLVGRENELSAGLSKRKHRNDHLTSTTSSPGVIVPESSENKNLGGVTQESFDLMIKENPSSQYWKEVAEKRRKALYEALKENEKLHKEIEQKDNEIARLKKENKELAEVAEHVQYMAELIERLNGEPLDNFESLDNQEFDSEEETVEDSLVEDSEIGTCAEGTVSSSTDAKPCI

T2: His-tagged human CDT1^158-396 Y170A (miniCDT1Y170A) (human, UniProt Q9H211 158-396, Y170A)
T2 construct: CDT1, human, residues 158-396 with Y170A, cloned into pET28a; also called His6-tagged miniCDT1^Y170A; source: E. coli Rosetta 2 (DE3), expressed alone or co-expressed with ΔDBGeminin, purified (Ni-NTA IMAC, SEC); not shown: His6, N-terminal, kept
T2 sequence (looked up): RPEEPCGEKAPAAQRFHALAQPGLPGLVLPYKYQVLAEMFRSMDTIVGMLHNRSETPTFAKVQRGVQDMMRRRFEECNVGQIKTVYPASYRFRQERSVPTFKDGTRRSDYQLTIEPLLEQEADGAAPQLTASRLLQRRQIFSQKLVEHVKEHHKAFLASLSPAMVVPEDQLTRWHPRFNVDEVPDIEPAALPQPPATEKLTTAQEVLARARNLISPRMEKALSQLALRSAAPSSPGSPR

T3: His-tagged human CDT1^158-396 (miniCDT1), wild type (human, UniProt Q9H211 158-396)
T3 construct: CDT1, human, residues 158-396 (miniCDT1); plasmid described in De Marco et al., 2009; also called His6-tagged miniCDT1; source: E. coli Rosetta 2 (DE3), expressed alone or co-expressed with Geminin variants, purified (Ni-NTA IMAC, SEC); not shown: His6, N-terminal, kept
T3 sequence (looked up): T2 sequence (looked up) with A13Y

T4: His-tagged human CDT1^158-396 F173A (miniCDT1F173A) (human, UniProt Q9H211 158-396, F173A)
T4 construct: CDT1, human, residues 158-396 with F173A, cloned into pET28a; source: E. coli Rosetta 2 (DE3), expressed alone or co-expressed with ΔDBGeminin, purified (Ni-NTA IMAC, SEC); not shown: His6, N-terminal, kept
T4 sequence (looked up): T2 sequence (looked up) with A13Y, F16A

T5: CDT1-GFP (UniProt Q9H211 1-546)
T5 construct: CDT1 fused to GFP; plasmid and cell line from Xouri et al., 2007; also called MCF7 CDT1-GFP; source: MCF7 cells stably expressing CDT1-GFP, in fixed cells
T5 sequence (looked up): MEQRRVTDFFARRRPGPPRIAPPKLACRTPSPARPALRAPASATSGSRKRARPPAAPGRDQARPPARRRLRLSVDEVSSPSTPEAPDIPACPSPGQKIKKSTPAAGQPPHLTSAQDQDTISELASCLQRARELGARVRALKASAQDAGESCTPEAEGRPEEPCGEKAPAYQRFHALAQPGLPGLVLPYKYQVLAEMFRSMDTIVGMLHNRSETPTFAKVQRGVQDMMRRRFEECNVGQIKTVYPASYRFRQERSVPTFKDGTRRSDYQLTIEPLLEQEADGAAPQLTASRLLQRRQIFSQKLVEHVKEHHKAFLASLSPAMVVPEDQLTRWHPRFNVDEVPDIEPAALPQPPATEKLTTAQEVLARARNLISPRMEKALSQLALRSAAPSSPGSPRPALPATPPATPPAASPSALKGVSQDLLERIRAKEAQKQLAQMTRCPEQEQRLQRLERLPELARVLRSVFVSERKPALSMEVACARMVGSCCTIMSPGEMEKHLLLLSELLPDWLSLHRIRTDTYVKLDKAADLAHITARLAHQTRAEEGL

T6: His-tagged human CDT1^158-396 L176A (miniCDT1L176A) (human, UniProt Q9H211 158-396, L176A)
T6 construct: CDT1, human, residues 158-396 with L176A, cloned into pET28a; Could not be isolated on its own (limited solubility); used only as complex with ΔDBGeminin; source: E. coli Rosetta 2 (DE3), co-expressed with ΔDBGeminin, co-purified (Ni-NTA IMAC, SEC)
T6 sequence (looked up): T2 sequence (looked up) with A13Y, L19A

B1: His-tagged human CDT1^158-356 (tCDT1) (domain or fragment, UniProt Q9H211 158-356, looked up)
chain: T1 sequence (Q9H211 158-356)
notes: CDT1, human, residues 158-356 (tCDT1); plasmid described in De Marco et al., 2009; source: E. coli Rosetta 2 (DE3), purified (Ni-NTA IMAC, SEC)
B2: Full-length human Geminin (natural protein, UniProt O75496 1-209, looked up)
chain: T1 sequence (O75496 1-209 partner)
notes: Geminin, human, full length, cloned into pET22b; pET22b can add a C-terminal His tag (surmise); also called full length Geminin; source: E. coli Rosetta 2 (DE3), purified (Ni-NTA IMAC, SEC)
B3: Geminin-dHcRed (natural protein, UniProt O75496 1-209, looked up)
chain: T1 sequence (O75496 1-209 partner)
notes: Geminin fused to dHcRed; plasmid from Xouri et al., 2007; source: MCF7 cells, transiently transfected, in fixed cells
B4: Flag-tagged Geminin^28-209 (ΔDBGeminin) (domain or fragment, human, UniProt O75496 28-209, looked up)
chain: MIQPSASGSLVGRENELSAGLSKRKHRNDHLTSTTSSPGVIVPESSENKNLGGVTQESFDLMIKENPSSQYWKEVAEKRRKALYEALKENEKLHKEIEQKDNEIARLKKENKELAEVAEHVQYMAELIERLNGEPLDNFESLDNQEFDSEEETVEDSLVEDSEIGTCAEGTVSSSTDAKPCI
notes: Geminin, human, residues 28-209 (lacks the N-terminal stretch with the destruction box), cloned into pET22b; also called Flag-tagged ΔDBGeminin; source: E. coli Rosetta 2 (DE3), co-expressed with miniCDT1 variants, co-purified (Ni-NTA IMAC, SEC)
B5: untagged ΔDBGeminin (domain or fragment, human, UniProt O75496 28-209, looked up)
chain: B4 chain
notes: Geminin, human, residues 28-209 (ΔDBGeminin), without the Flag tag; also called untagged ΔDBGeminin (Geminin 28-209)

Substitutions are numbered along the chain they refer to.

For one assay, the target named is CDT1 (Homo sapiens) (UniProt Q9H211). The following applies: cited from earlier work.
The next assay has as its target T1, CDT1. As to the kind of experiment: SPR inhibition of Geminin binding to immobilized CDT1; AlphaScreen IC50 […]; FRET in MCF7 cells. (In general: In Alpha technology, singlet oxygen from a donor bead excites a nearby acceptor bead.)
In assay [1] the target is B2. As to the kind of experiment: SPR; Biacore T100, 25°C; tCDT1 (about 6.000 RU) or miniCDT1 covalently immobilised on a CM5 chip (amine coupling, pH 5.5); Geminin 12-966 nM with AF615 at 10 μM, 100 μM, 1 mM (20% DMSO); 20 mM Hepes pH 7.5, 200 mM NaCl, Tween 20 0.01%, 30 μl/min. The note with it: both partners purified. On the technique in general: Surface plasmon resonance follows binding to a sensor surface in real time, without labels.

The target in assay [2] is T2, His-tagged human CDT1^158-396 Y170A …. As to the kind of experiment: SPR; Biacore T100, 25°C; about 5.000 RU of miniCDT1 variants held on a Ni NTA chip via N-terminal His-tag; full-length Geminin injected at 1-100 nM; 20 mM Tris pH 7.5, 200 mM NaCl, 30 μl/min. The note with it: both partners purified.
The target in assay [3] is T3, His-tagged human CDT1^158-396 …. The description is as above. The following applies: both partners purified.
Assay [4] deals with T4, His-tagged human CDT1^158-396 F173A …. The assay is described as above. The following applies: both partners purified.
The target of another assay is T5, CDT1-GFP. As to the kind of experiment: FRET or BRET; sensitized emission FRET in fixed MCF7 cells stably expressing CDT1-GFP (or GFP-NLS as control), transiently transfected with Geminin-dHcRed; with DMSO or AF615 at 11, 33, 100 μM for 24 h. The following applies: partners not purified. In general terms: In BRET a luciferase serves as donor, and the signal depends on an acceptor being close.

Assay [5] deals with T2, His-tagged human CDT1^158-396 Y170A …. As to the kind of experiment: AlphaScreen or HTRF; HTS format and its optimisation (titration, data not shown): Flag-ΔDBGeminin/His6-miniCDT1Y170A complex 200-400 nM (300 nM in the screen), 10 μg/ml streptavidin Donor and nickel-chelate Acceptor beads, 25 nM biotinylated anti-Flag antibody; 25 mM Hepes pH 7.4, 100 mM NaCl, 0.2% BSA. The note with it: both partners purified.

Assay [6] concerns the target T6, His-tagged human CDT1^158-396 L176A …. As to the kind of experiment: AlphaScreen or HTRF; competition: Flag-ΔDBGeminin/His6-miniCDT1 mutant complex at 50 nM, streptavidin Donor beads with biotinylated anti-Flag antibody, nickel-chelate Acceptor beads; increasing untagged ΔDBGeminin; 25 mM Hepes pH 7.4, 100 mM NaCl, 0.1% BSA; 1.5 h at RT. The note with it: both partners purified.

In assay [7] the target is T4, His-tagged human CDT1^158-396 F173A …. The assay is described as above. The following applies: both partners purified.

For Geminin (from UniProt O75496), the Kd with CDT1 (Homo sapiens) is 4.4 nM.

`O=C(NNC(=S)N1CCOCC1)c1cnccn1` [AF615] gave a Ki on CDT1 of 370 nM.

As for B1, the binding result in assay [1] was “binds”.

Turning to B2, the Kd in assay [2] was 41 nM; in assay [3] it was 9.4 nM; in assay [4], 25 nM.

With B3, the “FRET mean intensity against cells expressing GFP-NLS and Geminin-dHcRed” value with CDT1-GFP is approximately 3 fold.

Take B4: the AlphaScreen signal-to-background ratio in [5] is more than 20 fold.

For the molecule B5, the results for the “excess of untagged ΔDBGeminin needed for a similar signal reduction” value in [6] and in [7] were 100 fold and 10 fold, respectively.

For orientation: Kd means a measure of binding affinity in units of concentration. The Ki is a dissociation constant, usually derived from enzyme kinetics or from competition with a known ligand. Read a low Ki as higher affinity.

The values are drawn from paper PMC9083542, “Small Molecule Inhibitor Targeting CDT1/Geminin Protein Complex Promotes DNA Damage and Cell Death in Cancer Cells” (Frontiers in Pharmacology, 2022).
